Measured values from article PMC12186880.

Molecular target: adenine base editing engineered ribonucleoprotein (BE-eRNP): bipartite NLS-TadA(8.20-m)-linker-nCas9(D10A, C80A)-bipartite NLS protein complexed with sgRNA (Escherichia coli | Streptococcus pyogenes)
Assay: native gel or EMSA

Substance: adenine base editing engineered ribonucleoprotein (BE-eRNP): bipartite NLS-TadA(8.20-m)-linker-nCas9(D10A, C80A)-bipartite NLS protein complexed with sgRNA (enzyme)
- stoichiometry N: 2
